The target of one test is T1, insulin (Sigma).
T1 construct: Antigen of the polyreactivity ELISA
As to the kind of experiment: polyreactive ELISA, insulin coated, 100 nM antibody. The protocol: Insulin ([…]; Sigma) and dsDNA ([…]; Sigma) were coated onto 96-well high-binding ELISA microplates (Corning) at 50 μL per well overnight at 4° C. Plates were blocked with PBS with 0.5% BSA (blocking buffer) at room temperature (RT) for 1 h, followed by three washes with PBST (PBS with 0.1% Tween-20). 50 μL of 100 nM antibody in blocking buffer was added to each well and incubated at RT for 1 h, followed by six washes with 100 μL of PBS. 50 μL of diluted anti-human IgG-horseradish peroxidase (HRP) conjugate (Jackson ImmunoResearch) was added to the wells and incubated for 1 h followed by another six washes. Finally, 50 μL of 3, 3′, 5, 5′-Tetramethylbenzidine (TMB) substrate (Fisher Scientific) was added to each well to develop the detection signal. The reactions were stopped by adding 50 μL of 2 M sulfuric acid to each well. The absorbance was measured at 450 nm using a multimode microplate reader. Ustekinumab as the control antibody with low polyreactivity and bococizumab as a highly polyreactive antibody control were also included in the polyreactive ELISA assessment.
The first assessment tested for low non-specific binding to dsDNA and insulin by ELISA. […] Thus, by this standard, none of the tested antibodies were polyreactive.
For orientation: ELISA stands for enzyme-linked immunosorbent assay.

Test [1] deals with T2, human CD8αα homodimer, recombinant protein (Acro Biosystems) (human, UniProt P01732 22-182).
T2 construct: also called CD8αα antigen; biotinylated CD8α recombinant protein (CDA-H82E3)
T2 sequence (P01732 22-182 limits assumed): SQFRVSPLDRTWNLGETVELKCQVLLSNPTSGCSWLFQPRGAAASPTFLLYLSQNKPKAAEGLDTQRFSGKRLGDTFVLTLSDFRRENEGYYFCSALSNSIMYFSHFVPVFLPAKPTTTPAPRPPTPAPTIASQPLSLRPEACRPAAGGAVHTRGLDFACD
The test is described as follows: BLI steady state, whole hIgG1-LALAPA antibody on CD8α-His (Ni-NTA sensor), 30 °C. The protocol: (§1) To assess affinity of whole antibodies, steady state analysis was used as the bivalent nature of both whole antibody and CD8α complicates kinetic analysis. 50 nM CD8α-His (that is, CD8α with a C-terminal oligohistidine tag; Acro) was immobilized on Ni-NTA sensor probes. Binding was analyzed with a three-fold antibody dilutions series: 60 nM, 20 nM, 6.67 nM, 2.22 nM, 0.74 nM, and 0.25 nM. The antigen-loaded sensors were incubated in the diluted solutions to capture the whole IgG antibody for 300 s to record the association phase. Sensors were incubated in the kinetic buffer for 900 s to record the dissociation phase. The spin speed was 1000 rpm for all steps except the antigen loading step which was 400 rpm to control density of the antigen. The temperature of the performed assays was at 30° C. during the association and dissociation phases. The sensor data were baseline subtracted and further analyzed in GatorOne software (version 2.10) to determine the equilibrium dissociation constants (KD) of the antibodies by fitting the signals of the steady states to the 1:1 binding model.

The target in test [2] is T3, human CD8 on cells (CD8-overexpressing HEK293T cells, SupT1, HPB-ALL, human T cells, transfected HEK293 of … (human, UniProt P01732 22-235)).
T3 construct: whole, on cells; also called cell surface CD8
T3 sequence (P01732 22-235): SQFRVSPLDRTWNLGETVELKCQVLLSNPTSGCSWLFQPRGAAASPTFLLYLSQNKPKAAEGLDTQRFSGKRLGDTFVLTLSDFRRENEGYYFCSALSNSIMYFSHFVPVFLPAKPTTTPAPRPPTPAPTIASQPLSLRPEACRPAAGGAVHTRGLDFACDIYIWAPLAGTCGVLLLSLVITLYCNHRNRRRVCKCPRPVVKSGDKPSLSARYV
The test is described as follows: flow cytometry on CD8-overexpressing HEK293T cells, non-linear fit of normalized gMFI. The protocol: To obtain the results shown in FIG. 3A, that determined EC₅₀ values for antigen-specific binding, CD8-overexpressing HEK293T cells were dissociated in Versine solution (PBS buffer at pH 7.4 supplemented with 0.5 mM EDTA), and 2×10⁵ total cells were transferred to a V-bottom 96 well culture plate (Corning). Cells were washed twice with Cell Staining buffer (#420201, Biolegend). Each anti-CD8α antibody with human IgG1 isotype and Fc-silencing mutations L234A, L235A and P329A was diluted in four-fold antibody titration series from 100 μg/mL to 6.1 ng/ml into Cell Staining buffer. eFluor 780 Fixable Viability dye (eBioscience) was also included during antibody solutions at a 1:4000 dilution. Cells were stained with each diluted antibody solution for 30 minutes on ice. Cells were then washed three times with Cell Staining buffer and primary antibody binding was detected by staining with anti-human Fc BV421 conjugate antibody (#410704, Biolegend) at 1:100 dilution for 30 minutes on ice. After staining with the secondary detection antibody, cells were washed three times with Cell Staining buffer, fixed in FluoroFix buffer (Biolegend) and kept at 4° C. in the dark until analysis. Flow cytometry analysis on each sample was performed on an Agilent NovoCyte flow cytometer. Flow cytometry data was analyzed by Flowjo 10 (Becton, Dickinson & Company) to measure the geometric median fluorescence intensity (gMFI) of the on-cell binding from each antibody. The gMFI values were normalized with the gMFI measured in the sample stained with only the secondary detection antibody and plotted against the concentration of the added antibodies. The binding curves were constructed using the Graphpad Prism software, and EC₅₀ values were determined by non-linear curve fitting.

The target of test [3] is T2, human CD8αα homodimer, recombinant …. The test is described as follows: BLI, whole antibody. (Biolayer interferometry detects binding as a change in optical thickness at a sensor tip.)
Test [4] shares this target. The test is described as follows: BLI, whole antibody, steady state dissociation constant (column head x10^-9M). The protocol:
as §1

T1 sequence (P01308 25-54, chain 1 of 2): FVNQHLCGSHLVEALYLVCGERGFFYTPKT
T1 sequence (P01308 90-110, chain 2 of 2): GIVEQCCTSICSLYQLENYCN

B1: CBD1032 whole antibody, Fc-silenced human IgG1 (LALAPA) (antibody, V domains shown)
VH: QVQLVQSGAEVKKPGASVKVSCKASRYTFTDYNLHWVRQAPGQGLEWMGFIYPYNGGTGYAQKFQGRVTMTRDTSTSTVYMELSSLRSEDTAVYYCARDHRYNEGVSFDYWGQGTTVTVSS
VL: DIQMTQSPSSLSASVGDRVTITCRASESVDGFGNSFMNWYQQKPGKAPKLLIYLASNLESGVPSRFSGSGSGTDFTLTISSLQPEDFATYYCQQNNEDPYTFGQGTKLEIKR
As usually defined, the Kd is the equilibrium constant for the complex coming apart. The EC50 is the concentration that produces a half-maximal response. Read a high EC50 as lower potency in that assay. Take B1: the “polyreactivity ELISA score” value with insulin (Sigma) is 1. The Kd in test [1] stood at 1.4 nM. The same molecule showed an EC50 in test [2] of 2.35 nM.

B2: CBD1380 whole antibody (VH N55S of CBD1033), Fc-silenced human IgG1 (antibody, V domains shown)
VH: QVQLVQSGAEVKKPGASVKVSCKASRYTFTDYNLHWVRQAPGQGLEWMGFIYPYSGGTGYAQKFQGRVTMTVDTSTSTAYMELSSLRSEDTAVYYCARDHRYNEGVSFDYWGQGTTVTVSS
VL: DIQLTQSPSSLSASVGDRATITCRASESVDGFGNSFMNWYQQKPGKAPKLLIYLASNLESGVPSRFSGSGSGTDFTLTISSVQPEDFATYYCQQNNEDPYTFGQGTKLEIKR
By koff is commonly meant the first-order rate constant of dissociation. One may read the kon as the rate constant with which the complex forms. With B2, in test [3], the koff is 0.00192 s⁻¹ and the kon was 1.86e+06 M⁻¹ s⁻¹. Also, the Kd in test [4] came out at 0.76 nM.

B3: CBD1040 whole antibody, Fc-silenced human IgG1 (LALAPA) (antibody, V domains shown)
VH: QVQLVQSGAEVKKPGASVKISCKASRYTFTDYNLHWVRQAPGQGLEWIGFIYPYNGGTGYAQKFQGRATLTVDYSTSTAYMELSSLRSEDTAVYYCARDHRYNEGVSFDYWGQGTTLTVSS
VL: DIQLTQSPSSLSASVGDRATITCRASESVDGFGNSFMNWYQQKPGKAPKLLIYLASNLESGVPSRFSGSGSRTDFTLTISSVQPEDFATYYCQQNNEDPYTFGQGTKLEIKR
Regarding B3, in the test with insulin (Sigma), the “polyreactivity ELISA score” value worked out at 1. Further, the Kd in test [1] came to 4.06 nM. In addition, in test [2], the EC50 came out at 2.54 nM.

B4: CBD1381 whole antibody (VH N55Q of CBD1033), Fc-silenced human IgG1 (antibody, V domains shown)
VH: QVQLVQSGAEVKKPGASVKVSCKASRYTFTDYNLHWVRQAPGQGLEWMGFIYPYQGGTGYAQKFQGRVTMTVDTSTSTAYMELSSLRSEDTAVYYCARDHRYNEGVSFDYWGQGTTVTVSS
VL: DIQLTQSPSSLSASVGDRATITCRASESVDGFGNSFMNWYQQKPGKAPKLLIYLASNLESGVPSRFSGSGSGTDFTLTISSVQPEDFATYYCQQNNEDPYTFGQGTKLEIKR
Regarding B4, in test [3], the koff is 0.000795 s⁻¹ and the kon worked out at 1.91e+06 M⁻¹ s⁻¹. Besides, the Kd in test [4] turned out to be 0.5 nM.

B5: CBD1034 whole antibody, Fc-silenced human IgG1 (LALAPA) (antibody, V domains shown)
VH: QVQLVQSGAEVKKPGASVKVSCKASRYTFTDYNLHWVRQAPGQGLEWMGFIYPYNGGTGYAQKFQGRVTMTVDTSTSTAYMELSSLRSEDTAVYYCARDHRYNEGVSFDYWGQGTTVTVSS
VL: DIQLTQSPSSLSASVGDRATITCRASESVDGFGNSFMNWYQQKPGKAPKLLIYLASNLESGVPSRFSGSGSRTDFTLTISSVQPEDFATYYCQQNNEDPYTFGQGTKLEIKR
For B5, in the test with insulin (Sigma), the “polyreactivity ELISA score” value was 1. Also, the Kd in test [1] came to 4.63 nM. This molecule also showed an EC50 in test [2] of 2.71 nM.

B6: CBD1039 whole antibody, Fc-silenced human IgG1 (LALAPA) (antibody, V domains shown)
VH: QVQLVQSGAEVKKPGASVKISCKASRYTFTDYNLHWVRQAPGQGLEWIGFIYPYNGGTGYAQKFQGRATLTVDYSTSTAYMELSSLRSEDTAVYYCARDHRYNEGVSFDYWGQGTTLTVSS
VL: DIQLTQSPSSLSASVGDRATITCRASESVDGFGNSFMNWYQQKPGKAPKLLIYLASNLESGVPSRFSGSGSGTDFTLTISSVQPEDFATYYCQQNNEDPYTFGQGTKLEIKR
For B6, the “polyreactivity ELISA score” value with insulin (Sigma) stood at 1. Further, the Kd in test [1] worked out at 1.76 nM. In addition, the EC50 in test [2] stood at 4.39 nM.

B7: CBD1035 whole antibody, Fc-silenced human IgG1 (LALAPA) (antibody, V domains shown)
VH: QVQLVQSGAEVKKPGASVKISCKASRYTFTDYNLHWVRQAPGQGLEWIGFIYPYNGGTGYAQKFQGRATLTVDTSTSTAYMELSSLRSEDTAVYYCARDHRYNEGVSFDYWGQGTTLTVSS
VL: DIQLTQSPSSLSASVGDRATITCRASESVDGFGNSFMNWYQQKPGKAPKLLIYLASNLESGVPSRFSGSGSGTDFTLTISSVQPEDFATYYCQQNNEDPYTFGQGTKLEIKR
In the case of B7, the “polyreactivity ELISA score” value with insulin (Sigma) turned out to be 1. Moreover, in test [1], the Kd was 2.66 nM. Further, the EC50 in test [2] is 1.75 nM.

B8: CBD1382 whole antibody (VH N55A of CBD1033), Fc-silenced human IgG1 (antibody, V domains shown)
VH: QVQLVQSGAEVKKPGASVKVSCKASRYTFTDYNLHWVRQAPGQGLEWMGFIYPYAGGTGYAQKFQGRVTMTVDTSTSTAYMELSSLRSEDTAVYYCARDHRYNEGVSFDYWGQGTTVTVSS
VL: DIQLTQSPSSLSASVGDRATITCRASESVDGFGNSFMNWYQQKPGKAPKLLIYLASNLESGVPSRFSGSGSGTDFTLTISSVQPEDFATYYCQQNNEDPYTFGQGTKLEIKR
In the case of B8, in test [3], the koff turned out to be 0.00195 s⁻¹ and the kon was 1.63e+06 M⁻¹ s⁻¹. Besides, the Kd in test [4] was 0.88 nM.

Source of the values: patent US20250195685A1 (CAPSTAN THERAPEUTICS, published 2025).
